The source of these data is US20190225698A1 (JIANGSU HENGRUI MEDICINE, published 2019).

Residue numbers refer to the chain shown, from its start.

Assay [1] has as its target T1, murine CD27-FcHis fusion protein (murine, UniProt P41272 24-182, limits assumed).
T1 construct: Immobilized directly on the chip by amino coupling; also called mouse CD27; not shown: Fc and His tag
T1 sequence (looked up): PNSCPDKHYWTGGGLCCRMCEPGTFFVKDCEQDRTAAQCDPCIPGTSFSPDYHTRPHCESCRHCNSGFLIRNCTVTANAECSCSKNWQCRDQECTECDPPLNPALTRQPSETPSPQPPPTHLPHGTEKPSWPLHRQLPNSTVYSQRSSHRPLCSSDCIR
Briefly: SPR (Biacore), murine CD27-FcHis immobilized, antibody as analyte. As to the method: The affinity of the antibody binding to […] CD27 was also determined using SPR. In this experiment, the murine CD27-FcHis fusion protein was directly immobilized on a CMS chip (600 RU) by amino coupling. Antibodies at different concentrations (0.39, 0.78, 1.56, 3.13, 6.25, 12.5, 25, 50, 100 nM) were loaded at a flow rate of […] for 30 seconds with a dissociation time of 1800 seconds.
For orientation: SPR reads the build-up and loss of mass on a sensor chip optically.

Assay [2] concerns the target T2, human TNFRSF1A expressed on transfected HEK293 cells (human, UniProt P19438 30-455).
T2 construct: whole, on cells
T2 sequence (looked up): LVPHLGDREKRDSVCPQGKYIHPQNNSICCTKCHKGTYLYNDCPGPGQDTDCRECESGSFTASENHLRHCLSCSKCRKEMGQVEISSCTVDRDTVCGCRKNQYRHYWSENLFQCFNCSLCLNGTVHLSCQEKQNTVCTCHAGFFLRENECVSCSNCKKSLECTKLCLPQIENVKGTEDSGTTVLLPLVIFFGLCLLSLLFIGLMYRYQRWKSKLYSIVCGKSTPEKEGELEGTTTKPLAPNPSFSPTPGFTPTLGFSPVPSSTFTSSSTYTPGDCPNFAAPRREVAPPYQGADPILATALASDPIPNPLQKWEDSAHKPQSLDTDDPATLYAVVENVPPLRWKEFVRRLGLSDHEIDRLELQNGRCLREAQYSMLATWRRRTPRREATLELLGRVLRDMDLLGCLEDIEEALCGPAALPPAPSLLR
Briefly: flow cytometry on transfected HEK293 cells. (A flow cytometer gives signals particle by particle.)

For assay [3], the target named is T3, murine CD40 expressed on transfected HEK293 cells (murine, UniProt P27512 20-289).
T3 construct: whole, on cells
T3 sequence (looked up): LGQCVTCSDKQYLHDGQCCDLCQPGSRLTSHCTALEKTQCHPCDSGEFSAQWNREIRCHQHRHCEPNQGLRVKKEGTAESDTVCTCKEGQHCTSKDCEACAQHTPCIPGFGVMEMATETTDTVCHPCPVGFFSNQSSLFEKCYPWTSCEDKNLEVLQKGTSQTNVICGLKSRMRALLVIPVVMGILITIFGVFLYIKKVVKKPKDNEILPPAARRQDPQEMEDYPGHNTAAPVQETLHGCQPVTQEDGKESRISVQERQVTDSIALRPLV
The experiment in a line: flow cytometry on transfected HEK293 cells.

Assay [4] concerns the target T4, murine TNFRSF1A expressed on transfected HEK293 cells (murine, UniProt P25118 30-454).
T4 construct: whole, on cells
T4 sequence (looked up): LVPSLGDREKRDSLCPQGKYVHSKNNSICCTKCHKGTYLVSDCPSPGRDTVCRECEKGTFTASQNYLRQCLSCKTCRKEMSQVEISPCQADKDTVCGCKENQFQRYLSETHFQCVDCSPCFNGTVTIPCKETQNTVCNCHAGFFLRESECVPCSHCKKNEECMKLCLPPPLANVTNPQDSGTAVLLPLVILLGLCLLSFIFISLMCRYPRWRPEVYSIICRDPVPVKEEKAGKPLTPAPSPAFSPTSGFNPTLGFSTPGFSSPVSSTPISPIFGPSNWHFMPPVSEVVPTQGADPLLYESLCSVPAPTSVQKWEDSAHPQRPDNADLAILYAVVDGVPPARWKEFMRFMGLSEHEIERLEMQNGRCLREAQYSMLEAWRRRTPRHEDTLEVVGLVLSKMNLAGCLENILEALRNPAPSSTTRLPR
The experiment in a line: flow cytometry on transfected HEK293 cells.

Assay [5] deals with T5, human FAS expressed on transfected HEK293 cells (human, UniProt P25445 26-335).
T5 construct: whole, on cells
T5 sequence (looked up): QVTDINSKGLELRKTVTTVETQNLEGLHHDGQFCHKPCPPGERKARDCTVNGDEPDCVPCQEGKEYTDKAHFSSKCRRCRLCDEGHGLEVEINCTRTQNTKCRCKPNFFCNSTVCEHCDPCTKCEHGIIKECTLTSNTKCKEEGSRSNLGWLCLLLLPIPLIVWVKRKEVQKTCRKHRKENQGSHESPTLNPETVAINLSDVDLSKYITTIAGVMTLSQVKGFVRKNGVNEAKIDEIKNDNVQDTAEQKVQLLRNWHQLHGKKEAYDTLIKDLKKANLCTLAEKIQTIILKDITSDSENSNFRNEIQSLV
Briefly: flow cytometry on transfected HEK293 cells.

Assay [6] concerns the target T6, murine FAS expressed on transfected HEK293 cells (murine, UniProt P25446 22-327).
T6 construct: whole, on cells
T6 sequence (looked up): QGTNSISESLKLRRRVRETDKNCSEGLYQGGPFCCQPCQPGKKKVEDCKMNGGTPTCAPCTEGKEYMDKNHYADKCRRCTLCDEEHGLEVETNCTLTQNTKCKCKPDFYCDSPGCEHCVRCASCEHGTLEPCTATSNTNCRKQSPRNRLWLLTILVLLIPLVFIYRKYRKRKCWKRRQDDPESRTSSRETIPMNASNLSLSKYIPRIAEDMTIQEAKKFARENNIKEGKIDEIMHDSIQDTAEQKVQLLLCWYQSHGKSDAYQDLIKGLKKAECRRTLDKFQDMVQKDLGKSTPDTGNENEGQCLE
Briefly: flow cytometry on transfected HEK293 cells.

The target of assay [7] is T7, human CD137 expressed on transfected HEK293 cells (human, UniProt Q07011 24-255).
T7 construct: whole, on cells
T7 sequence (Q07011 24-255): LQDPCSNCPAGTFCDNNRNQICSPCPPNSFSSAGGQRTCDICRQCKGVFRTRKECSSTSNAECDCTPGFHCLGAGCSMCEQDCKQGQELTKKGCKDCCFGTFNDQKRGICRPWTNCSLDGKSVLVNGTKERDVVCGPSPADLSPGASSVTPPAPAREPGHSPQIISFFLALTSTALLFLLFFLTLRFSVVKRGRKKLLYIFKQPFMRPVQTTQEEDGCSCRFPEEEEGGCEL
The experiment in a line: flow cytometry on transfected HEK293 cells.

Assay [8] concerns the target T8, murine OX40 expressed on transfected HEK293 cells (murine, UniProt P47741 20-272).
T8 construct: whole, on cells
T8 sequence (looked up): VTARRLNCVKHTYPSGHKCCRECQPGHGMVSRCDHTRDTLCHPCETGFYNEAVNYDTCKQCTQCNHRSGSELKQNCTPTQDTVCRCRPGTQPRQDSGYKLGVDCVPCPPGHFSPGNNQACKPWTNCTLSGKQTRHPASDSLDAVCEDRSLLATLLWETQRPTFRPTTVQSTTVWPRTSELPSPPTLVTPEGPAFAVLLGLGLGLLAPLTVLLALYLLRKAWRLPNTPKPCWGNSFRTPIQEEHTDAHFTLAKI
Briefly: flow cytometry on transfected HEK293 cells.

B1: anti-CD27 antibody mAb076 (IgG1 form) (antibody, V domains shown)
VH: EVQLVESGGGLVQPGGSLRLSCAASGFTFSDYGIHWVRQAPGKGLEWIGWINPNRGSTNYAQKFQGRVTISRDNSKNTLYLQLNSLRAEDTAVYYCARDYGYTWYFDVWGQGTLVTVSS
VL: DIQLTQSPSSLSASVGDRVTITCRASQDISSVLAWYQQKPGKAPKLLIYAASSLQSGVPSRFSGSGSGTDFTLTISSLQPEDFATYYCQQRDAWPLTFGQGTKVEIK
notes: Human antibody from phage display
For the molecule B1, the binding result in assay [1] is reported as “binds”; in assay [2] it was “no binding (tested: 100 nM)”; in assay [3], “no binding (tested: 100 nM)”; in assay [4] it was “no binding (tested: 100 nM)”; in assay [5], “no binding (tested: 100 nM)”; in assay [6], “no binding (tested: 100 nM)”. Moreover, the binding result in assay [7] and in assay [8] was “no binding (tested: 100 nM)” throughout.

B2: anti-CD27 antibody mAb077 (IgG1 form) (antibody, V domains shown)
VH: B1 VH with D31G, N59K, Y100P
VL: B1 VL with V32D, S53T, L96P
notes: as for B1
Take B2: the binding result is listed as “binds” in assay [1]; “no binding (tested: 100 nM)” in assay [2]; “no binding (tested: 100 nM)” in assay [3]; “no binding (tested: 100 nM)” in assay [4]; “no binding (tested: 100 nM)” in assay [5]; “no binding (tested: 100 nM)” in assay [6]. For the same molecule, the binding result in assay [7] and in assay [8] was “no binding (tested: 100 nM)” each time.
